Assay results: patent US20220033501A1 (SHANGHAI PHARMAEXPLORER, published 2022)

Tests used:
[1] = biological target: T1, monkey TIM-3 on CHOK1 stable cell line (CHOK1-cTIM-3) (monkey); assay: FACS, CHOK1-cTIM-3 cells, 0.32 nM antibody
T1 chain: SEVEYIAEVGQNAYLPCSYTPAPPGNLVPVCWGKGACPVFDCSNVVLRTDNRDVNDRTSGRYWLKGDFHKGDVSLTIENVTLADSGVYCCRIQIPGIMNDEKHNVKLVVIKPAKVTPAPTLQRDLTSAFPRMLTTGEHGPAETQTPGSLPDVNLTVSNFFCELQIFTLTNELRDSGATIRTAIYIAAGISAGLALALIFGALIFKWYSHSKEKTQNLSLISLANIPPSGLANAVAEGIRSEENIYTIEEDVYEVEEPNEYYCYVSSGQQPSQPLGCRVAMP

[2] = biological target: T2, monkey TIM-3 extracellular domain protein with hFc tag (cTIM-3-hFc) (monkey); assay: ELISA, coated monkey TIM-3 ECD protein, 0.0067 nM antibody
T2 construct: not shown: human IgG Fc fragment (hFc) of the pCpC vector
T2 chain: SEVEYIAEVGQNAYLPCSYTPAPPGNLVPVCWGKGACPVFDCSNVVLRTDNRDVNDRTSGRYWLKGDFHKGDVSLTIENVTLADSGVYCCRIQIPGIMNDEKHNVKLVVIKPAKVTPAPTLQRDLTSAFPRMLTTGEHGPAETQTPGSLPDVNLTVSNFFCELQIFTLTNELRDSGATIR

[3] = biological target: T3, human TIM-3 on CHOK1 stable cell line (CHOK1-hTIM-3) (human, UniProt Q8TDQ0 22-301); assay: FACS, CHOK1-hTIM-3 cells, 0.064 nM antibody
T3 sequence: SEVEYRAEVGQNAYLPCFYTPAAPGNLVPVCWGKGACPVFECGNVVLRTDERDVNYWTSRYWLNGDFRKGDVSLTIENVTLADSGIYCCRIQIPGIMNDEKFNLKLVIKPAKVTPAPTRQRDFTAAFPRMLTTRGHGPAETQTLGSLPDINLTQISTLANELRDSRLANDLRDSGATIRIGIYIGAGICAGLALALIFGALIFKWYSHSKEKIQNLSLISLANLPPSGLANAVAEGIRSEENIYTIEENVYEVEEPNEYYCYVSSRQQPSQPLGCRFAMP

[4] = biological target: T4, murine TIM-3 extracellular domain protein with hFc tag (mTIM-3-hFc) (mouse, UniProt Q8VIM0 29-191); assay: ELISA, coated mouse TIM-3 ECD protein, 0 nM antibody
T4 construct: also called mouse TIM-3 extracellular domain protein; not shown: human IgG Fc fragment (hFc) of the pCpC vector
T4 chain: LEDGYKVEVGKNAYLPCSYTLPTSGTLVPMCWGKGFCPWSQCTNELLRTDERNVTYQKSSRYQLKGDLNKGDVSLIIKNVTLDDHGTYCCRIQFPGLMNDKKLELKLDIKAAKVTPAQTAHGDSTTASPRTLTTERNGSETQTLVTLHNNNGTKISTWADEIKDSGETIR

B1: 34B6D8 fully human TIM-3 antibody (human IgG4, kappa) (antibody, V domains shown)
VH: EVQLVESGGGLVQPGGSLRLSCAASGFTFSTYWMTWVRQAPGKRLEWVANIKQGGGDKYYVDSVKGRFTISTDNAKNSLYLQMNSLRAEDTAVYYCARGSNWFDPWGQGTLVTVSS
VL: EIVMTQSPATLSMSPGERATLSCRASQSVYDNLAWYQQKPGQAPRLLIYGASTRATGIPARFSGSGSGTEFTLTISSLQSEDFALYYCQQYTHWPITFGQGTRLEIK
- Mean fluorescence intensity [1]: 109
- OD450 [2]: 0.37
- Mean fluorescence intensity [3]: 22.2
- OD450 [4]: 0.24

B2: 39E5H1 fully human TIM-3 antibody (human IgG4, kappa) (antibody, V domains shown)
VH: EVQLVESGGGLVQPGGSLRLSCAASGFTFSSYWMSWVRQAPGKGLEWVANIKRGGSERYYVDSVKGRFTISGDNAKNSVYLQMNSLRAEDTAVYYCARGSNWFDPWGQGTLVTVSS
VL: ETVMTQSPAILSVSPGERATLSCRASQSVYSNLAWYQQKLGQAPRLLIYDASTRATGIPARFSGSGSGTEFTLTISSLQSEDFAVYYCQQYNNWPITFGQGTRLEIK
- Mean fluorescence intensity [1]: 132
- OD450 [2]: 0.3
- Mean fluorescence intensity [3]: 27
- OD450 [4]: 0.24
